Bridge positions count the residues as written; N and C are the ends. Square brackets hold non-standard residues; d marks the D form.
Columns and labels:
ANP receptor (on ANP …) = molecular target: ANP receptor (on ANP receptor-expressing LLC-PK1 cells); test: cell-based or functional assay
[1] = molecular target: MCR1 receptor (on MCR1 receptor-expressing B16-F1 cells) (UniProt Q01727 1-315); test: cell-based or functional assay
MCR1 receptor (on MCR1 receptor-expressing B16-F1 cells), sequence (Q01727 whole entry): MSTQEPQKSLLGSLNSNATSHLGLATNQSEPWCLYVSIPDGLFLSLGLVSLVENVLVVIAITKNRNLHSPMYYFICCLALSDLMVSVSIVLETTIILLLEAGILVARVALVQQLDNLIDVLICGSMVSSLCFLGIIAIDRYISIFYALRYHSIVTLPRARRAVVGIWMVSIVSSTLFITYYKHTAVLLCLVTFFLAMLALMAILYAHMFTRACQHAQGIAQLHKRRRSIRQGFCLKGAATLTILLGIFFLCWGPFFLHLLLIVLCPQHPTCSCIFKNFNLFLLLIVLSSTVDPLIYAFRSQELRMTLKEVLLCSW

Row | EC50 on the production of cGMP (LLC-PK1 cells) (ANP receptor (on ANP …)) [nM] | EC50 on the production of cAMP (BC16-F1 cells) [1] [nM] | Binder
1 | 74.3 | 20.9 | Ac-H[dF]RWGKPMCHFGGRMDRISCYR-NH2 (disulfide 9-20; SMILES CC[C@H](C)[C@@H]1NC(=O)[C@H](CCCNC(=N)N)NC(=O)[C@H](CC(=O)O)NC(=O)[C@H](CCSC)NC(=O)[C@H](CCCNC(=N)N)NC(=O)CNC(=O)CNC(=O)[C@H](Cc2ccccc2)NC(=O)[C@H](Cc2c[nH]cn2)NC(=O)[C@@H](NC(=O)[C@H](CCSC)NC(=O)[C@@H]2CCCN2C(=O)[C@H](CCCCN)NC(=O)CNC(=O)[C@H](Cc2c[nH]c3ccccc23)NC(=O)[C@H](CCCNC(=N)N)NC(=O)[C@@H](Cc2ccccc2)NC(=O)[C@H](Cc2c[nH]cn2)NC(C)=O)CSSC[C@@H](C(=O)N[C@@H](Cc2ccc(O)cc2)C(=O)N[C@@H](CCCNC(=N)N)C(N)=O)NC(=O)[C@H](CO)NC1=O) [bifunctional hormone of SEQ ID NO: 31]
2 | 502 | 6 | Ac-EH[dF]RWGRRSSCFGGRMDRIGAQSGLGCNSFRY-NH2 (disulfide 11-27; SMILES CC[C@H](C)[C@@H]1NC(=O)[C@H](CCCNC(=N)N)NC(=O)[C@H](CC(=O)O)NC(=O)[C@H](CCSC)NC(=O)[C@H](CCCNC(=N)N)NC(=O)CNC(=O)CNC(=O)[C@H](Cc2ccccc2)NC(=O)[C@@H](NC(=O)[C@H](CO)NC(=O)[C@H](CO)NC(=O)[C@H](CCCNC(=N)N)NC(=O)[C@H](CCCNC(=N)N)NC(=O)CNC(=O)[C@H](Cc2c[nH]c3ccccc23)NC(=O)[C@H](CCCNC(=N)N)NC(=O)[C@@H](Cc2ccccc2)NC(=O)[C@H](Cc2c[nH]cn2)NC(=O)[C@H](CCC(=O)O)NC(C)=O)CSSC[C@@H](C(=O)N[C@@H](CC(N)=O)C(=O)N[C@@H](CO)C(=O)N[C@@H](Cc2ccccc2)C(=O)N[C@@H](CCCNC(=N)N)C(=O)N[C@@H](Cc2ccc(O)cc2)C(N)=O)NC(=O)CNC(=O)[C@H](CC(C)C)NC(=O)CNC(=O)[C@H](CO)NC(=O)[C@H](CCC(N)=O)NC(=O)[C@H](C)NC(=O)CNC1=O) [bifunctional hormone of SEQ ID NO: 42]

Source: US20090011997A1 (THERATECHNOLOGIES, published 2009)
